Assay results as given in patent US20190330298A1 (WORG PHARMACEUTICALS ZHEJIANG, published 2019).

Target: T1, HLA-DRB1*0301 molecule (HLA-DR3 MHC class II of DR3tg mice) (human)
T1 construct: whole, on cells; MHC class II expressed by DR3tg mice (no mouse MHC II); the responding T cells came from DR3 mice; also called MHC II
Experiment: in vivo presentation test in DR3tg mice; binding inferred from IFN-γ response of peptide-specific T cells to isolated CD11c+ cells
Experimental: DR3tg or DR2tg mice were injected with 100 μg of peptide in 100 μl PBS subcutaneously (s.c.) in the flank. Control animals received a s.c. injection of 100 μl PBS. After 2 hours, spleens were harvested and single-cell suspensions were made. CD11c⁺ cells were positively selected using CD11c microbeads according to the manufacturer's instructions (Miltenyi Biotec, Bergisch Gladbach, Germany). Average purities of >92% were reached. 5×10⁴ CD11c⁺ cells were co-cultured with 5×10⁴ CD4⁺ cells in round bottom 96-well plates in X-vivo 15 medium (supplemented with 2 mM L-glutamine, 50 U/mL penicillin and 50 U/mL streptomycin; Lonza). […] After 48 hours, supernatant of these co-cultures was collected and CD4⁺ T cell activation was analysed by IFN-γ ELISA (R&D Systems, Abingdon, UK). In a parallel experiment, CD4⁺ T cell responses towards peptide added in vitro were assessed to make sure the T cells recognize the peptides presented by the CD11c⁺ cells.
In FIG. 15 the ability of HIP-115NE3 (insoluble peptide) and that of its soluble version, HIP-115NE3-KKK, to be picked up and presented by MHC II molecules present on dendritic cells (DC) upon sc. injection in an in vivo setting (DR3tg mice) was compared. […] T cell activity response was measured by production of IFN-γ. […]

B1: HIP-115NE3-KKK (peptide)
peptide: H-KKKVIFKKISRDKSVTIYLGKKK-NH2
notes: Synthetic; HIP-115NE3 with KKK at both ends
  binding result: binds
